The record followed here is patent US20140308678A1 (ONCOTHERAPY SCIENCE, published 2014).

Assay [1] addresses T1, FLAG-HSP90AB1 (WT) (human, UniProt P08238 1-724).
T1 construct: Expressed in cells together with HA-SMYD2 (so it may be methylated by SMYD2 in the assay); not shown: FLAG tag
The assay can be described thus: anti-FLAG immunoprecipitation from 293T cells, Western blot with anti-Cdc37 (FIG. 5D); the wild type is the reference. How it is done:
(§1) Then, cell lysates were immunoblotted with anti-FLAG, anti-SMYD2 and anti-ACTB (an internal control) antibodies. Part B depicts the results of immunoprecipitation analysis using 293T cells co-transfected with FLAG-Mock or FLAG-HSP90AB1 (WT) and HA-HSP90AB1 (WT or K531A/K574A) expression vectors in the presence of an HA-SMYD2 expression vector. Immunoprecipitation was performed using anti-FLAG^{(registered trademark)} M2 agarose beads, and samples were immunoblotted with anti-FLAG and anti-HA antibodies. Part C depicts the results of immunoprecipitation analysis using 293T cells co-transfected with FLAG-Mock or FLAG-HSP90AB1 (WT) and HA-HSP90AB1 (WT, K531A or K574A) expression vectors in the presence of an HA-SMYD2 expression vector. Immunoprecipitation was performed using anti-FLAG^{(registered trademark)} M2 agarose beads, and samples were immunoblotted with anti-FLAG and anti-HA antibodies. Part D and E depict that the methylation of K574 on HSP90AB1 is important for binding to some co-chaperones. 293T cells were transfected with FLAG-HSP90AB1 (WT) or FLAG-HSP90AB1 (K531A/K574A) (D), FLAG-Mock, FLAG-HSP90AB1 (WT), FLAG-HSP90AB1 (K531A) or FLAG-HSP90AB1 (K574A) (E) expression vectors, in the presence of an HA-SMYD2 expression vector. […]

For assay [2], the target named is T2, FLAG-HSP90AB1 (K531A/K574A) (human, UniProt P08238 1-724).
T2 construct: Expressed in 293T cells in the presence of HA-SMYD2; also called K531A/K574A substitution of HSP90AB1; not shown: FLAG tag
T2 sequence (P08238 whole entry K531A/K574A): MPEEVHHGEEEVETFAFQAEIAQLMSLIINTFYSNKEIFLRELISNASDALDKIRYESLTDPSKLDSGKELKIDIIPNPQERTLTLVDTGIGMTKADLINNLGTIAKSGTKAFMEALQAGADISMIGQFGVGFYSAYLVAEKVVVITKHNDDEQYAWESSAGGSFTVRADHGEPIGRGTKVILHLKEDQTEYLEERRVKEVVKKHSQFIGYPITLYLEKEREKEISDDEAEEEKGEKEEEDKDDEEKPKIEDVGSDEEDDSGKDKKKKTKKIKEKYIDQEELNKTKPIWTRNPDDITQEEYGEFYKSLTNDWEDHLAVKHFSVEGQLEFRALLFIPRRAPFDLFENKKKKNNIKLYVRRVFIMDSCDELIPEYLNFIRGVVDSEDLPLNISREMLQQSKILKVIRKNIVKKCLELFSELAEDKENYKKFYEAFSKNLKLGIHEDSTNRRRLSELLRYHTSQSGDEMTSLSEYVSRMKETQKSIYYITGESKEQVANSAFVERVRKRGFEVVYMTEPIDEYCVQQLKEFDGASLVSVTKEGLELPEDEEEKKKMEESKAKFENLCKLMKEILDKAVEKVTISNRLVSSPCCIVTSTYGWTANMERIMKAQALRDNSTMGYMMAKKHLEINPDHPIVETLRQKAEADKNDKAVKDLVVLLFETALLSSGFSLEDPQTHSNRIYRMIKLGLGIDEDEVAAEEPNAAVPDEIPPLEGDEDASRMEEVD
The assay is described as follows: anti-FLAG immunoprecipitation from 293T cells, Western blot with anti-p23 (FIG. 5D). On the procedure:
as §1

For the next assay, the target named is T3, FLAG-HSP90AB1 (K574A) (human, UniProt P08238 1-724).
T3 construct: Expressed in 293T cells in the presence of HA-SMYD2; not shown: FLAG tag
T3 sequence (P08238 whole entry K574A): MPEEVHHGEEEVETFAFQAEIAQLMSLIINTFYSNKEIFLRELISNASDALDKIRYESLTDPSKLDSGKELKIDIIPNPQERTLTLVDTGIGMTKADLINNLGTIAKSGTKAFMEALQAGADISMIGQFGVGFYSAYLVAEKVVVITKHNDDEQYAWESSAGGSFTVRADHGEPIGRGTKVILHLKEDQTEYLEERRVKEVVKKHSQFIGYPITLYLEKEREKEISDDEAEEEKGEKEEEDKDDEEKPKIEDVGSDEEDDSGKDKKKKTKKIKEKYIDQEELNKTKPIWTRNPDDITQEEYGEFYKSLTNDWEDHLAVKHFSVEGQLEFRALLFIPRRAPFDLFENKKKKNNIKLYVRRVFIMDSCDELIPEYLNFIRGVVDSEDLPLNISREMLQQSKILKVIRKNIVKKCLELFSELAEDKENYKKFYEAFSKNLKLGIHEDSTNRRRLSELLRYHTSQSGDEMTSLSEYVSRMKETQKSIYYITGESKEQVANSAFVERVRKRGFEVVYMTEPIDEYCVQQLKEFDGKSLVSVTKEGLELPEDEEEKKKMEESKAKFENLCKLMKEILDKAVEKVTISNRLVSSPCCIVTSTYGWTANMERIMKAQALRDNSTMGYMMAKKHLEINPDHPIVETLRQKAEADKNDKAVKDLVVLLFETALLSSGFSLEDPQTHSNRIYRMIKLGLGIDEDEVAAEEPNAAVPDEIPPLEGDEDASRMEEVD
The assay is described as follows: anti-FLAG immunoprecipitation from 293T cells, Western blot with anti-p23 (FIG. 5E). How it is done: as §1

The target in assay [3] is T1, FLAG-HSP90AB1 (WT). The assay is described as follows: anti-FLAG immunoprecipitation from 293T cells, Western blot with anti-p23 (FIG. 5D); the wild type is the reference. On the procedure:
as §1

T1 sequence (P08238 whole entry): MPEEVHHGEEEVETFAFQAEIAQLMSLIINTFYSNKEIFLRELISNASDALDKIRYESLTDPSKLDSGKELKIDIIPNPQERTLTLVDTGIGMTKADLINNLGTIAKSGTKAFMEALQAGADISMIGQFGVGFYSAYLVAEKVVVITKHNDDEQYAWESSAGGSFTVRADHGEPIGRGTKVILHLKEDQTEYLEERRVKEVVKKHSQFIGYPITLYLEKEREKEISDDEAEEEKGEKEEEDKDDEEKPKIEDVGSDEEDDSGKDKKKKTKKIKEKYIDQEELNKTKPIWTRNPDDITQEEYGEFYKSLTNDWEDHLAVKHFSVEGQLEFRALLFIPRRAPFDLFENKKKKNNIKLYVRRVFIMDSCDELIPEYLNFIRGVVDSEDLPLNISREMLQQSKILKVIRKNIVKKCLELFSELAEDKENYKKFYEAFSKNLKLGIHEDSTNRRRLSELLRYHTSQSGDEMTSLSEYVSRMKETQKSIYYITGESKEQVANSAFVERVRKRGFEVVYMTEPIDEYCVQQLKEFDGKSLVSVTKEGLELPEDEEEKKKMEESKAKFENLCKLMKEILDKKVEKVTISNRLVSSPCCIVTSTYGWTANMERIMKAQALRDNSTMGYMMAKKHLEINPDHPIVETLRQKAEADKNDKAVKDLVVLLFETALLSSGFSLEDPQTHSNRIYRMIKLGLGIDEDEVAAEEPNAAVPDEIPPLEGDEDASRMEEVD

B1: Cdc37 (other, UniProt Q16543 1-378, looked up)
chain: MVDYSVWDHIEVSDDEDETHPNIDTASLFRWRHQARVERMEQFQKEKEELDRGCRECKRKVAECQRKLKELEVAEGGKAELERLQAEAQQLRKEERSWEQKLEEMRKKEKSMPWNVDTLSKDGFSKSMVNTKPEKTEEDSEEVREQKHKTFVEKYEKQIKHFGMLRRWDDSQKYLSDNVHLVCEETANYLVIWCIDLEVEEKCALMEQVAHQTIVMQFILELAKSLKVDPRACFRQFFTKIKTADRQYMEGFNDELEAFKERVRGRAKLRIEKAMKEYEEEERKKRLGPGGLDPVEVYESLPEELQKCFDVKDVQMLQDAISKMDPTDAKYHMQRCIDSGLWVPNSKASEAKEGEEAGPGDPLLEAVPKTGDEKDVSV
notes: Endogenous in 293T cell lysate
Take B1: the binding result in the assay with FLAG-HSP90AB1 (WT) [1] is reported as “binds”.

B2: p23 (other, UniProt Q15185 1-160, looked up)
chain: MQPASAKWYDRRDYVFIEFCVEDSKDVNVNFEKSKLTFSCLGGSDNFKHLNEIDLFHCIDPNDSKHKRTDRSILCCLRKGESGQSWPRLTKERAKLNWLSVDFNNWKDWEDDSDEDMSNFDRFSEMMNNMGGDEDVDLPEVDGADDDSQDSDDEKMPDLE
notes: as for B1
On to B2, for which the binding result (in assay [2]; with FLAG-HSP90AB1 (K574A); in the assay with FLAG-HSP90AB1 (WT) [3]) was “binds” each time.
